B1: OR4K15 (parent)
chain: GUUAACGGUCAUAGGCCAUGGAAACUAGGAGCACCAUUUCGCUGCCAGUGAAGAAAUGAACAAAGAAAAUCUGGGCCAGGCAGGCAUCAAAAGAAAUAGUCUUGCGCUCAACCAGAAAGUCUGUAAUCAUUUUAAGGGUA

Variants of: B1
Test: self-cleavage, relative activity (ratio to wild type); higher = more cleavage; in vitro, sequencing; the parent is a self-cleaving ribozyme

Variant	self-cleavage
A86U A98G	0.37
A86G U133C	2.05
A92G A94U	2.13
A86G G104A	0.02
U87G U122C	0.68
A90U G106A	0
U87A A134G	2.21
A89G A116G	0.7
A89G A116U	0.31
A90G A114G	0.16
U87C A90C	0.98
U87C A90G	0.3
A90U A117G	1.99
C85U U122C	0.9
A89G A91U	2.19
C85A C109A	0.19
A92C	1.27
A92G	1.15
A89U A114G	0.49
A90C	1.55
A90U	1.96

Variant	self-cleavage
A90G	0.95
A86G C109U	0.22
U87G A90G	0.82
C88A U102C	2.23
C88A U102A	0.58
A91G A117U	0.69
U87C A95C	0.32
U87C A95G	1.35
U87A A110C	0.25
U87A A110G	0.15
A91C U124C	1.67
A92C A114G	0.98
A91U U132A	1.98
A90U A116U	0.24
U87C U131C	1.07
U87C U131A	0.39
A86G A91C	0.64
A91G A96G	1.3
A90G A125G	0.23
U87C C101A	0.14
A91G A135U	1.25

Variant	self-cleavage
A90G G123A	0.48
A90G U102C	1.97
A90G U102A	0.09
A91G U102C	1.94
A90G U127C	0.13
A91U A94U	1.87
A90U A98U	2.21
A91G G104A	0.02
A86G U132A	1.2
A86C A114G	0.24
U87C A116U	0.17
A86G A94U	2.2
A89G A90G	0.71
A91G A114U	0.03
A91G A114G	0.25
A86C U108A	0.16
U87G U108C	0.02
A86U A94G	1.72
A89G A98U	2.15
A90U U122C	2.2
C85U	1.15

Variant	self-cleavage
C85G	1.18
U87A A92G	2.61
A86U C112U	0.02
C85U U120G	0.64
A91G A110U	0.36
A89U A129C	0.68
A89U A129G	1.59
U87G A117G	0.46
A89U A110U	1.46
U87C A114G	0.43
A89G U132C	1.4
A91G G119U	0.81
A89U A91G	1.78
A89C U139C	1.52
A89U U130C	1.2
A86C C109U	0.25
A86U A117U	1.56
A91G U108C	0.02
C85U A96G	1.24
A86U U108C	0.02
A86G A129U	0.57
